Results published in patent publication US20190015484A1, “NICOTINE-DEGRADING ENZYMES FOR TREATING NICOTINE ADDICTION AND NICOTINE POISONING” (priority 2015, published 2019).

How the values were obtained:
[1] = NicA2 PK study in mice (ELISA of serum); assay type: in vivo, mouse
Method: Purified His-tagged NicA2 was conjugated to 20 kDa PEG and subsequently purified by HPLC. […] The fusion protein was expressed in E. coli and purified as described above for NicA2.
His-tagged NicA2, NicA2-PEG or NicA2-ABD was dosed intravenously in mice at 5 mg/kg. Blood sampling was done at pre-dose and then over a 5 min-72 h period (three animals per time-point) and processed to serum.
Assay of serum samples was done taking advantage of the C-terminal His-tag on the test articles. MaxiSorp ELISA plates (Nunc) were coated overnight with anti-His×6 antibody (purchased from R&D Systems). Plates were blocked with 4% dry milk (purchased from Bio-Rad) in PBS. Dilutions of standard and serum samples in 2% milk in PBS+0.1% Tween-20 were added to the plates, and incubated for 1 hour at room temperature. After washing away unbound substances (all wash steps performed in PBS+0.1% Tween-20), rabbit anti-NicA2 polyclonal primary detection antibody (purchased from Noble Life Sciences, Inc.) was added to the wells for a 1 hour incubation. […] Plates were washed, and the remaining binding complex was detected with TMB substrate (3,3′,5,5′-tetramethylbenzidine; KPL). Once stopped with acid, plates were read on a spectrophotometer at 450 nm and data analyzed in SoftMax® Pro, version 6.5.1 (purchased from Molecular Devices). […]

[2] = NicA2 degradation of nicotine in mouse serum; assay type: biochemical; conditions: 125, 250, 500 nM nicotine, 20 nM NicA2, mouse serum, 30 min
Method: FIGS. 5A-5D illustrate the stability of the NicA2 enzyme. FIG. 5A graphically illustrates the thermal stability of the NicA2 enzyme as a function of temperature. FIG. 5B illustrates the stability of NicA2 at 37° C. in HEPES buffer (pH=7.4) as a function of time. […] FIG. 5C illustrates the stability of NicA2 in mouse serum at 37° C. over time. FIG. 5D graphically illustrates the ability of NicA2 to degrade nicotine in mouse serum. Concentrations of 125, 250, 500 nM nicotine with and without enzyme (20 nM NicA2) were incubated in serum for 30 min. Residual nicotine remaining after this time period was measured.
As a means to test NicA2's efficiency “in vivo”, nicotine was doped with or without enzyme in serum (FIG. 5D). […] To further substantiate a conclusion that NicA2 can remove nicotine in vivo, NicA2's catabolism of nicotine was simulated based upon foregoing kinetic constants that were determined. NicA2 specificity constant is approximately 10^5 M^−1s^−1 and while clearly far from a perfect enzyme (10^8-10^9 M^−1s^−1).

[3] = Temperature curve of NicA2; assay type: biochemical; conditions: HEPES buffer, 20-95° C.
Method: 100 μL of each solution was mixed, incubated, quenched and then analyzed as detailed, vide supra.
The effect of higher temperatures on the enzyme's stability was also examined.

[4] = In vivo testing of NicA2: blood and brain nicotine levels in rats; design: species or system rat
Method: Rats were used for in vivo testing because their nicotine metabolism is generally similar to that of humans with regard to rate and range of metabolites. 30 female, 250 g Sprague Dawley rats were pretreated with varying amounts of NicA2 intravenously as noted in Table B below.
After administration of NicA2 (generally over 5 minutes), nicotine (0.03 mg/kg) was administered intravenously. At 5 minutes, the rats were sacrificed under isoflurane anesthesia and 1 ml blood samples were collected with 0.32 ml heparin. 0.5 ml of each blood sample was added to a tube containing ice cold 2 ml methanol (to quench NicA2 activity) and the contents were rapidly mixed. Another 0.5 ml of each blood sample was added to a tube containing ice cold 2 ml of methanol (to quench NicA2 activity) and deuterium labeled D4-nicotine, and the contents were rapidly mixed. The brains were collected and frozen at −20° C. Measurements were made in accordance with Keyler et al., International Pharmacology 2008, 8, […], and, Hieda et al., Psychopharmacology, 1999, 143(2), 150-157.

B1: NicA2: flavin-containing nicotine-degrading enzyme of Pseudomonas putida S16, amino acid sequence SEQ ID NO:1 (protein)
chain: MSDKTKTNEGFSRRSFIGSAAVVTAGVAGLGAIDAASATQKTNRASTVKGGFDYDVVVVGGGFAGATAARECGLQGYRTLLLEARSRLGGRTFTSRFAGQEIEFGGAWVHWLQPHVWAEMQRYGLGVVEDPLTNLDKTLIMYNDGSVESISPDEFGKNIRIAFEKLCHDAWEVFPRPHEPMFTERARELDKSSVLDRIKTLGLSRLQQAQINSYMALYAGETTDKFGLPGVLKLFACGGWNYDAFMDTETHYRIQGGTIGLINAMLTDSGAEVRMSVPVTAVEQVNGGVKIKTDDDEIITAGVVVMTVPLNTYKHIGFTPALSKGKQRFIKEGQLSKGAKLYVHVKQNLGRVFAFADEQQPLNWVQTHDYSDELGTILSITIARKETIDVNDRDAVTREVQKMFPGVEVLGTAAYDWTADPFSLGAWAAYGVGQLSRLKDLQAAEGRILFAGAETSNGWHANIDGAVESGLRAGREVKQLLS
modifications: His tag
- half-life in vivo ([1]; in vivo in mammals, due to renal clearance): 3 to 4 h
- Half-life ([1]; mice, 5 mg/kg intravenously, serum): 3.7 h
- nicotine consumed in serum [2]: consumed all nicotine
- optimum temperature [3]: 70 °C
- brain nicotine levels ([4]; 4 out of the 5 animals, 5 min after 0.03 mg/kg i.v. nicotine): < 2 ng/mL
- blood and brain levels of nicotine ([4]; rats, 5 minutes after 0.03 mg/kg i.v. nicotine, n=5): below the limit of quantitation
- reduction in nicotine blood levels ([4]; rats, highest NicA2 dose (9.72 mg/kg i.v.), 5 min after 0.03 mg/kg i.v. nicotine, compared to controls): > 95%
